Source: patent US12338291B2, “Humanized antibody molecules to CD138 and uses thereof” (VISTERRA, INC., priority 2019, dated 2025)
Positions count from the first letter of the chain named.

B1: mAb 3821: humanized anti-CD138 antibody; VH SEQ ID NO: 466, VL SEQ ID NO: 476 (antibody, V domains shown)
VH: QVQLVQSGAEVKKPGSSVKVSCKASGYSFSSYYMHWVRQAPGQGLEWMGTIHPSDSTANYNQKFKGRVTITVDKSTSTAYMELSSLRSEDTAVYYCANFVYWGQGTTVTVSS
VL: DIVMTQTPLSLSVTPGQPASISCKSSKSLLYKDGKTYLNWFLQKPGQSPQLLIYVVSTRASGVPDRFSGSGSGTDFTLKISRVEAEDVGVYYCQQLVQYPYTFGQGTKLEIK
B2: mAb 4521: humanized anti-CD138 antibody; VH SEQ ID NO: 473, VL SEQ ID NO: 476 (antibody, V domains shown)
VH: B1 VH with S16A, S28N, S30A, A58T, I70M, K74T
VL: B1 VL
B3: mAb 4326: humanized anti-CD138 antibody; VH SEQ ID NO: 471, VL SEQ ID NO: 481 (antibody, V domains shown)
VH: B1 VH with S16A, A58T, K65Q, I70M, K74T, S77R
VL: DIVMTQSPDSLAVSLGERATINCKSSQSLLYKDGKTYLNWFQQKPGQPPKLLIYVVSTRASGVPDRFSGSGSGTDFTLTISSLQAEDVAVYYCQQLVEYPYTFGQGTKLEIK
B4: mAb 4321: humanized anti-CD138 antibody; VH SEQ ID NO: 471, VL SEQ ID NO: 476 (antibody, V domains shown)
VH: B1 VH with S16A, A58T, K65Q, I70M, K74T, S77R
VL: B1 VL
B5: mAb 3820: humanized anti-CD138 antibody; VH SEQ ID NO: 466, VL SEQ ID NO: 475 (antibody, V domains shown)
VH: B1 VH
VL: B1 VL with Q98E
B6: mAb 2810: parental mouse-human chimeric anti-CD138 antibody; VH SEQ ID NO: 296, VL SEQ ID NO: 292 (antibody, V domains shown)
VH: QVQLHQPGTSLVKPGASVKLSCKASGYSFSSYYMHWVKQRPGQGLEWIGTIHPSDSTTNYNQKFKGKATLTVDKSSRTAYMQLNSLTFEDSAVYYCANFVYWGQGTSVTVSS
VL: DIVITQDELSNPVTSGDSVSISCRSSKSLLYKDGKTYLNWFLQRPGQSPQLLIYVVSTRASGVSDRFSGSGSGTDFTLEISRVKAEDVGVYYCQQLVEYPYTFGGGTKLEIK

Assays:
[1] = system: MM1.S (Luc) cells
Experimental: The mice (N=9 per group) were distributed to ensure that the mean whole-body tumor burden for all groups was within 10% of the overall mean whole-body tumor burden for the study population. Treatment was initiated on day 14 post tumor implant. […] Treatment in all groups was discontinued at Day 53; surviving animals were monitored for an additional 3 weeks out to Day 73 (discontinuation phase of the study).
Whole body tumor burden was monitored by bioluminescence. […] BLI was performed using an IVIS Lumina S5 (PerkinElmer, MA). Animals were imaged five at a time under 1-2% isoflurane gas anesthesia. […] Large binning of the CCD chip was used, and the exposure time was adjusted (5 seconds to 2 minutes) to obtain at least several hundred counts per image and to avoid saturation of the CCD chip Animals were imaged once weekly at staging and on days 14, 21, 29, 36, 43, 53, and 73 (end of study) for all animals remaining on study. Images were analyzed using Living Image 4.7.1 (PerkinElmer, MA) software. Whole body fixed-volume regions of interest (ROIs) were placed on prone and supine images for each individual animal and labeled based on animal identification. Total flux (photons/sec) was calculated and exported for all ROIs to facilitate analyses between groups. The prone and supine ROIs were summed together to estimate whole body tumor burden. Subject ROIs were also placed over each mouse, and region-specific ROIs were placed over spine and hindlimbs for each animal. These ROIs were then quantified independent of the whole-body ROIs in order to calculate signal from only hind limbs or spine.
Primary and secondary efficacy endpoints were generated using in vivo whole body BLI and included tumor burden assessment as described herein. Endpoints included whole body BLI ratio T/C (where T=treatment group and C=vehicle control) measured on each imaging day and reported on day 36 and tumor growth delay as measured as time to tumor burden as pre-defined as a BLI signal of 1.0×10^9 p/s. Additional efficacy endpoints included tumor regression, tumor free survival (TFS), and median life span normalized to vehicle control (% increased life span); this latter endpoint was calculated based on the first day of treatment and not the day of implant. Overall survival was calculated based on animals remaining on study.
Additional measurements included body weights (3× weekly), daily clinical observations and necropsy following euthanasia. Pre-defined euthanasia criteria were related to disease progression and included >20% loss in body weight or disease-related morbidity such as hind limb paralysis, paresthesia, or other signs of severe CNS or musculoskeletal impairment.

[2] = system: CD138+ RPMI 8226 cells; assay: Luciferase-based ADCC reporter assay against RPMI 8226; format: cell-based, human; conditions: 3-fold dilutions from 10 μg/mL, E:T 10:1, 16 h, FIG. 4
Experimental: (§1) In another experiment, the ADCC activity of the humanized variants of anti-CD138 antibody 2810 was assessed. Briefly, the humanized variant antibodies were produced by transient transfection of HEK 293 cells metabolically altered for purposes of reduced Fc fucosylation. The antibodies were then evaluated for antibody dependent cellular cytotoxicity (ADCC) activity against CD138^+ human lymphoblastic myeloma U266 cells in a luciferase based ADCC reporter assay using, as effector cells, engineered Jurkat cells stably transfected with the human FcγRIIIa receptor. U266 cells were incubated with mAbs that were 3-fold serially diluted from a starting concentration of 3 μg/mL and added to effector cells and CD138+U266 multiple myeloma target cells at a cell ratio of effector:target of 10:1. After 16-hour incubation at 37° C., luciferase activity was assessed as a measure of ADCC activity and reported as relative luminescence units (RLU). ADCC data were plotted using nonlinear regression analysis and a 4-parameter curve fit.
(§2) Second, humanized anti-CD138 antibody variants 3821, 4321, 4320, 4521, 4326, and 3820 were assessed for ADCC activity against U266, MM1.S, LP-1, and RPMI 8226 CD138^+ multiple myeloma cell lines using a luciferase based ADCC reporter assay, as described in Example 15. CD138^+ target cells were incubated with anti-CD138 antibodies that were serially diluted 3-fold starting at a concentration of 10 μg/mL, and subsequently added to FcγRIIIa effector cells at a cell ratio of effector:target cell (E:T of 10:1). After a 16 hour incubation at 37° C., cellular luciferase levels were quantified as a measure of ADCC activity and reported as relative luminescence units (RLU).

[3] = system: CD138+ LP-1 cells; assay: Antibody binding to LP-1 cells by flow cytometry; parameters: species or system human; conditions: FIG. 3
Experimental: (§3) In one experiment, the humanized variants of monoclonal antibody 2810 were assessed for their capacity to bind to CD138 on the surface of cells. Briefly, the humanized variants of antibody 2810 were produced in HEK 293 cells following transient transfection. The antibodies were then serially diluted three-fold. Antibody binding to membrane CD138 was evaluated using the CD138+ human lymphoblastic myeloma cell line U266 and quantified by flow cytometry. Antibody cell binding was reported as geometric mean fluorescence intensity (MFI). Binding data were plotted using nonlinear regression analysis and a 4-parameter curve fit.
(§4) First, humanized anti-CD138 antibody variants 3821, 4321, 4320, 4521, 4326, and 3820 were evaluated for binding to three different CD138+ multiple myeloma related cell lines: MM1.S, LP-1, and RPMI 8226. Antibody binding was measured by flow cytometry as described in Example 15.

[4] = Differential scanning fluorescence (DSF) thermal stability; format: physicochemical; conditions: PBS pH 7.4, 25-95 °C; for TM1: first thermal transition; for TM2: second thermal transition
Description: Thermal stability represents an important property of antibodies and is used as a predictive surrogate of pharmaceutical drug stability in humans based on a relative stability profile as characterized by differential thermal melting profiles. Several methods exist for evaluation of product stability based on thermal melting. These include, for example, circular dichroism (CD), differential scanning calorimetry (DSC), and differential scanning fluorescence (DSF), among others. In this example, the thermal stabilities of select humanized anti-CD138 antibodies were evaluated by DSF. DSF was used to monitor the conformational stability of a protein as it was exposed to increasing thermal stress. The dye, SYPRO Orange®, fluoresces in a hydrophobic environment, such as hydrophobic core residues that are exposed during thermally triggered protein unfolding, or denaturation. In brief, SYPRO® Orange Dye (Sigma Chemical) was diluted 1:500 in phosphate buffered saline (PBS), pH 7.4, without addition of any detergents. Antibodies were likewise diluted in PBS to a target concentration of 0.5 mg/mL. 15 μl of diluted antibody and fluorescent dye were added 1:1 (v/v) into a 96 well microtiter plate and thoroughly mixed by repeat pipetting. Thermal scans were carried out using a real-time quantitative PCR (qPCR) thermal cycler with fluorescence detection capabilities. Scans were initiated at 25° C. with incremental increase in well temperature of 1° C. ramp/minute from 25° C. to 95° C. The mid-point (Tm) between native state and the first unfolding event was reported as the transition temperature or melt temperature (TM). TMs were then calculated based on transformation of the data using the first derivative of the fluorescence signal versus time. (dfluoresence/dtime) (FIG. 7).

[5] = system: CD138+ MM1.S cells; assay: Antibody binding to MM1.S cells by flow cytometry; parameters: species or system human; conditions: FIG. 3
Experimental: as §3, §4

[6] = system: CD138+ human lymphoblastic myeloma U266 cells; assay: Luciferase-based ADCC reporter bioassay (Jurkat FcγRIIIa effector cells) against U266; format: cell-based; conditions: 3-fold dilutions from 10 μg/mL, E:T 10:1, 16 h, FIG. 4
Experimental: as §1, §2
Briefly, the two antibodies were evaluated for ADCC activity against CD138^+ human lymphoblastic myeloma U266 cells in a luciferase based ADCC reporter assay using, as effector cells, engineered Jurkat cells stably transfected with the human FcγRIIIa receptor as described in Example 1. This comparison is summarized in FIG. 9B with data normalized as fold-induction of ADCC activity relative to the minus antibody control.

[7] = system: CD138+ RPMI 8226 cells; assay: Antibody binding to RPMI 8226 cells by flow cytometry; parameters: species or system human; conditions: FIG. 3
Experimental: as §3, §4

[8] = system: CD138+ LP-1 cells; assay: Luciferase-based ADCC reporter assay against LP-1; format: cell-based, human; conditions: 3-fold dilutions from 10 μg/mL, E:T 10:1, 16 h, FIG. 4
Experimental: as §1, §2

[9] = system: CD138+ MM1.S cells; assay: Luciferase-based ADCC reporter assay against MM1.S; format: cell-based, human; conditions: 3-fold dilutions from 10 μg/mL, E:T 10:1, 16 h, FIG. 4
Experimental: as §1, §2

[10] = system: MM1.S (Luc) cells; assay: MM.1S Luc xenograft multiple myeloma model in C.B-17 SCID mice, dose escalation (Example 7); format: in vivo
[11] = Antibody production titers in Chinese hamster ovary cells; conditions: CHO transient transfection, after Protein A purification
Description: The yields represent antibody amounts following purification from cell culture media by Protein A affinity chromatography, carried out under identical transfection conditions and culture scale. Differential pre-purification titers based on quantification using Protein-A biosensors (bio-layer interferometry) of antibody in culture media was also noted likewise indicating differential expression levels (antibody titers).

Molecule | Change in body weight ([1]; FIG. 21) | Loss of weight of euthanized animal ([1]; bortezomib single agent, day 23) [%] | Treatment related death ([1]; bortezomib single treatment group, initially 2 mg/kg, early euthanasia day 23) [%] | Survival (animals remaining on study to end of study) ([1]; day 73, treatment discontinued day 53) | Incidence of complete or partial regression ([1]; end of dosing phase) | Tumor growth delay (time to BLI 1.0×10^9 p/s) ([1]; mAb 4320 4 mg/kg, bortezomib 1 mg/kg i.p. twice weekly) [days] | Increase in life span relative to vehicle control ([1]; mAb 4320 4 mg/kg, bortezomib 1 mg/kg i.p. twice weekly, day 14-53) [%] | Tolerability / toxicity ([1]; mouse, in vivo) | ADCC activity (RLU) [2] | Antibody binding by flow cytometry [3] | TM1 [4] [°C] | TM2 [4] [°C] | Antibody binding by flow cytometry [5] | ADCC activity (RLU) [6] | Antibody binding by flow cytometry [7] | ADCC activity (RLU) [8] | ADCC activity (RLU) [9] | Median % T/C (whole body BLI) ([10]; day 35, vs vehicle control) [%] | Tumor growth delay (time to median BLI of 1.0×10^9 p/s) relative to vehicle control ([10]; i.p. twice weekly, mAb 4320 4, 8, 16 mg/kg, mAb 2810 4 mg/kg) [days] | Expression [11] [mg/L]
CC(C)C[C@H](NC(=O)[C@H](Cc1ccccc1)NC(=O)c1cnccn1)B(O)O [bortezomib, [(1R)-3-Methyl-1-[[(2S)-1-oxo-3-phenyl-2-[(pyrazinylcarbonyl)amino]propyl]amino]butyl]boronic Acid, reference compound] | Loss of body weight | −24 | 11 | none of the animals survived | None | 10.6 | 40 | treatment related toxicity was observed |  |  |  |  |  |  |  |  |  |  |  | 
B1 |  |  |  |  |  |  |  |  | induced ADCC activity | dose-dependent binding | 69.1 | 77.7 | dose-dependent binding | induced ADCC activity | dose-dependent binding | induced ADCC activity | induced ADCC activity |  |  | 
B2 |  |  |  |  |  |  |  |  | induced ADCC activity | dose-dependent binding |  |  | dose-dependent binding | induced ADCC activity | dose-dependent binding | induced ADCC activity | induced ADCC activity |  |  | 
B3 |  |  |  |  |  |  |  |  | induced ADCC activity | dose-dependent binding |  |  | dose-dependent binding | induced ADCC activity | dose-dependent binding | induced ADCC activity | induced ADCC activity |  |  | 
B4 |  |  |  |  |  |  |  |  | induced ADCC activity | dose-dependent binding | 69.3 | 76.9 | dose-dependent binding | induced ADCC activity | dose-dependent binding | induced ADCC activity | induced ADCC activity |  |  | 
B5 |  |  |  |  |  |  |  |  | induced ADCC activity | dose-dependent binding |  |  | dose-dependent binding | induced ADCC activity | dose-dependent binding | induced ADCC activity | induced ADCC activity |  |  | 
B6 |  |  |  |  |  |  |  |  |  |  | 61.9 |  |  |  |  |  |  | 13.1 | 6.6 | 30.2
